Measured values from publication doi:10.1101/644955.

Target: FLAG-tagged rainbow trout IL-2 (IL-2A), expressed in insect cells (rainbow trout (Oncorhynchus mykiss))
Test: SEC

stoichiometry N: 2
Substance: FLAG-tagged rainbow trout IL-2 (IL-2A), expressed in insect cells (ligand)
